Laboratory results: patent US8741844B2, “Use of mutated antithrombins for treating or preventing coagulation disorders” (Universite Paris-Sud XI, priority 2007, dated 2014)
Changes are numbered by the printed parent chain. Names and notes keep the numbering of the source.

B1: AT-ΔR393: human antithrombin with deletion of the amino acid at position 393 (protein, listed as Homo sapiens)
chain: HGSPVDICTAKPRDIPMNPMCIYRSPEKKATEDEGSEQKIPEATNRRVWELSKANSRFATTFYQHLADSKNDNDNIFLSPLSISTAFAMTKLGACNDTLQQLMEVFKFDTISEKTSDQIHFFFAKLNCRLYRKANKSSKLVSANRLFGDKSLTFNETYQDISELVYGAKLQPLDFKENAEQSRAAINKWVSNKTEGRITDVIPSEAINELTVLVLVNTIYFKGLWKSKFSPENTRKELFYKADGESCSASMMYQEGKFRYRRVAEGTQVLELPFKGDDITMVLILPKPEKSLAKVEKELTPEVLQEWLDELEEMMLVVHMPRFRIEDGFSLKEQLQDMGLVDLFSPEKSKLPGIVAEGRDDLYVSDAFHKAFLEVNEEGSEAAASTAVVIAGSLNPNRVTFKANRPFLVFIREVPLNTIIFMGRVANPCVK
B2: AT-ΔS394: human antithrombin with deletion of the amino acid at position 394 (protein, listed as Homo sapiens)
chain: B1 chain with S393R
B3: AT-Pro394: human antithrombin with insertion of a Proline between positions 393 and 394 (protein, listed as Homo sapiens)
chain: HGSPVDICTAKPRDIPMNPMCIYRSPEKKATEDEGSEQKIPEATNRRVWELSKANSRFATTFYQHLADSKNDNDNIFLSPLSISTAFAMTKLGACNDTLQQLMEVFKFDTISEKTSDQIHFFFAKLNCRLYRKANKSSKLVSANRLFGDKSLTFNETYQDISELVYGAKLQPLDFKENAEQSRAAINKWVSNKTEGRITDVIPSEAINELTVLVLVNTIYFKGLWKSKFSPENTRKELFYKADGESCSASMMYQEGKFRYRRVAEGTQVLELPFKGDDITMVLILPKPEKSLAKVEKELTPEVLQEWLDELEEMMLVVHMPRFRIEDGFSLKEQLQDMGLVDLFSPEKSKLPGIVAEGRDDLYVSDAFHKAFLEVNEEGSEAAASTAVVIAGRPSLNPNRVTFKANRPFLVFIREVPLNTIIFMGRVANPCVK
B4: AT-N135Q-ΔR393-S394: human antithrombin with deletion of positions 393 and 394 and substitution at 135 by Glutamine (protein, listed as Homo sapiens)
chain: HGSPVDICTAKPRDIPMNPMCIYRSPEKKATEDEGSEQKIPEATNRRVWELSKANSRFATTFYQHLADSKNDNDNIFLSPLSISTAFAMTKLGACNDTLQQLMEVFKFDTISEKTSDQIHFFFAKLNCRLYRKAQKSSKLVSANRLFGDKSLTFNETYQDISELVYGAKLQPLDFKENAEQSRAAINKWVSNKTEGRITDVIPSEAINELTVLVLVNTIYFKGLWKSKFSPENTRKELFYKADGESCSASMMYQEGKFRYRRVAEGTQVLELPFKGDDITMVLILPKPEKSLAKVEKELTPEVLQEWLDELEEMMLVVHMPRFRIEDGFSLKEQLQDMGLVDLFSPEKSKLPGIVAEGRDDLYVSDAFHKAFLEVNEEGSEAAASTAVVIAGLNPNRVTFKANRPFLVFIREVPLNTIIFMGRVANPCVK
B5: AT-ΔR393-S394: human antithrombin with deletion of the amino acids at positions 393 and 394 (protein, listed as Homo sapiens)
chain: B4 chain with Q135N

tested on: plasma anti FXa activity in mice treated with pentasaccharide; experiment: Murine model: mutated antithrombins as antidotes of fondaparinux, plasma anti FXa activity; format: in vivo, mouse; conditions: injection of mutated antithrombin after fondaparinux
Description: The efficiency of the mutated antithrombins AT-R393H(SEQ ID NO: 4), AT-Pro394 (SEQ ID NO: 6), AT-ΔR393-S394 (SEQ ID NO: 18), AT-ΔR393 (SEQ ID NO: 8), AT-ΔS394 (SEQ ID NO: 10), AT-N135Q-R393H(SEQ ID NO: 14), AT-N135Q-Pro394 (SEQ ID NO: 16), AT-N135Q-ΔR393-S394 (SEQ ID NO: 24), AT-N135Q-ΔR393 (SEQ ID NO: 20), AT-N135Q-A5394 (SEQ ID NO: 22) as antidotes is evaluated in a murine model.
The different drugs to be tested (fondaparinux, low molecular weight heparin, full length heparin and the mutated antithrombins) are administrated by intra-venous injection in the caudal vein to avoid the variability encountered when administration is performed subcutaneously. However, Heparin derivatives (fondaparinux, low molecular weight heparin and full length heparin) could also be administrated subcutaneously.
The blood is collected by punction in cave vein into tubes containing 0.105 mol/L trisodium citrate (1:10). Platelet-poor plasma is obtained by centrifugation at 2300 g for 10 minutes at 12° C. and stored at −80° C. until use.
The following elements are determined: • the doses of fondaparinux inducing an overdose in mice, • the mutated antithrombins time course, and in particular the time required to observe a maximal biological effect, • the minimal doses of mutated antithrombins necessary to neutralize fondaparinux.
For each of these experiments, 4 groups of 5 mice each are used: • In the first group mice receive fondaparinux vehicle and then antidote (mutated antithrombin) vehicle. • In the second group, mice receive fondaparinux and then antidote vehicle • In the third group, mice receive fondaparinux vehicle and then antidote • In the last group, mice receive fondaparinux and then antidote
Anti FXa activity measurements is performed as previously described using a Stachrom Heparin® kit on a STA (Stago, France) or a Rotachrom Heparin® kit with procedure adapted for measurement in microplate reader (Dynatech MR 5000). A calibration curve with pentasaccharide is performed, allowing the expression of the results in nmol/ml (or in mg/L) of plasma.
Thus, the antidote (mutated antithrombins) is administered intravenously, 5 min after the intra-venous injection of the fondaparinux, and 5, 15 or 30 min after the subcutaneous injection of the fondaparinux.
The mutated antithrombin time course is studied by measuring the plasma anti-Xa activity 5 min, 10 min, 20 min and 40 min after the antidote administration.
Once the time of action determined, a dose response curve is performed in vivo to determine the dose of antidote necessary to obtain a decrease in Fondaparinux plasma concentration within the therapeutic range around 1.2 nmol/ml (or 2 mg/L), or around 0.7 nmol/ml (or 1.2 mg/L).

Molecule | plasma anti FXa activity in mice treated with pentasaccharide
B1 | significant decrease
B2 | significant decrease
B3 | significant decrease
B4 | significant decrease
B5 | significant decrease

tested on: pentasaccharide bound plasma antithrombin (plasma anti-factor Xa activity); experiment: Rotachrom heparin anti factor Xa assay in pentasaccharide containing human plasma (competition with plasma antithrombin for pentasaccharide binding); format: biochemical; conditions: human plasma with 3 μg/ml pentasaccharide
Description: Anti factor Xa inhibitory activity of mutated antithrombins AT-R393H(SEQ ID NO: 4), AT-Pro394 (SEQ ID NO: 6), AT-ΔR393-5394 (SEQ ID NO: 18), AT-ΔR393 (SEQ ID NO: 8), AT-ΔS394 (SEQ ID NO: 10), AT-N135Q-R393H(SEQ ID NO: 14), AT-N135Q-Pro394 (SEQ ID NO: 16), AT-N135Q-ΔR393-S394 (SEQ ID NO: 24), AT-N135Q-ΔR393 (SEQ ID NO: 20), AT-N135Q-ΔS394 (SEQ ID NO: 22) is measured in pentasaccharide containing plasma. The plasma concentrations of pentasaccharides are defined on the basis on those measured in patients treated by the pentasaccharide under the conditions of a regular (curative) use of this molecule or in patients presenting an overdose of this drug, knowing that the optimal equilibrium concentration is 1.20-1.26 mg/L and the minimal equilibrium concentration is 0.46-0.62 mg/L during a curative pentasaccharide treatment (monograph, Arixtra®).
The anti factor Xa assay is performed using the Rotachrom® heparin method (Stago) adaptated for absorbance reading on a microplate reader (Dynatech MR 5000), or a STA analyser (Stago).
The procedure consists in mixing 30 μl of pentasaccharide containing plasma sample diluted four times in kinetic buffer, with 75 μl of chromogenic substrate (1 mM, provided in Rotachrom® heparin kit). After 4 min incubation, 75 μl of bovine factor Xa (24 nM, Rotachrom® heparin kit) is added to the plasma-substrate mixture. The factor Xa activity is measured a 405 nm absorbance increase, resulting from cleavage of the chromogenic substrate, using a microplate reader (Dynatech MR 5000). The rate constant (k), proportional to anti-factor Xa activity, is obtained by fitting the substrate hydrolysis curve to equation (3) or (3′).
Firstly, the assay is calibrated in citrated (0.105 M) normal human plasma containing pentasaccharide concentrations ranging from 0 to 3 mg/L. A standard curve is generated and anti-factor Xa activity is expressed as mg of pentasaccharide per liter of plasma.
Secondly, to evaluate the anti factor Xa inhibitory activity of mutated antithrombins, the mutated antithrombin (0-0.6 g/L, preferably 0.15-0.6 g/L, final concentration, in kinetic buffer) is pre-incubated with an equal volume of pentasaccharide (0-3 mg/L, preferably 1-3 mg/L) containing plasma samples, during 30 min at 37° C.
Under these conditions, the mutated antithrombin concentration range from one to four times that of the plasma antithrombin level, which is compatible with a therapeutic use of antithrombin. Indeed, very high doses of mutated antithrombin, with a 5 fold increase in plasma antithrombin level, have already been used during clinical trials without side effects (Leitner J M, Firbas C, Mayr F B, Reiter R A, Steinlechner B, Jilma B., Recombinant human antithrombin inhibits thrombin formation and interleukin 6 release in human endotoxemia. Clin Pharmacol Ther. 2006 January; 79(1):23-34). Anti factor Xa inhibitory activity is then evaluated as previously described.
To estimate whether mutated antithrombin can be used as reversal of pentasaccharide in case of over-dosing, AT-N135Q-R393H(SEQ ID NO: 14) and AT-N135Q-Pro394 (SEQ ID NO: 16) are tested in Rotachrom® heparin assay for their ability to restore factor Xa activity. Under conditions of treatment for prevention of venous thromboembolic events, optimal pentasaccharide concentration ranges between 1.2 and 1.26 μg/mL in plasma. To mimic an over-dosing, pentasaccharide is added to human plasma pool at concentration of 3 μg/ml. Rotachrom® heparin assay is then performed by incubation of plasma over-dosed with pentasaccharide in the presence of mutated antithrombin in a ratio 1/1, 2/1, and 4/1 compared to plasma antithrombin concentration (i.e. 0.15, 0.3, 0.6 g/l). In this ex vivo assay, anti-factor Xa activity is proportional to the amount of pentasaccharide bound natural antithrombin present in tested plasma, which amount is directly proportional to pentasaccharide concentration in plasma. […]

Molecule | virtual pentasaccharide concentration at 2 or 4 fold molar excess compared to natural antithrombin
B3 | decreases to a level comparable to curative pentasaccharide treatment

same assay, conditions: human plasma with 3 μg/ml pentasaccharide; ratio 1/1

effect on anti-factor Xa activity at concentration equal to plasmatic antithrombin concentration | Molecule
significantly decrease | B3

same assay, conditions: human plasma, pre-incubation 30 min at 37° C.

effect on anti-Xa activity of pentasaccharide containing plasma sample | Molecule
significant decrease | B1
significant decrease | B2
significant decrease | B3
significant decrease | B4
significant decrease | B5
